# Article PMC8471065
# B1: 3Q-ppg-Cy5 (Cy5-3Q) (structured_DNA)
# DNA: GGGTTGGGTGTGGGTTGGG
# modifications: 3'-propargyl linker
# B2: TBA-ppg-Cy5 (structured_DNA)
# DNA: GGTTGGTGTGGTTGG
# modifications: 3'-propargyl linker
# Experiments:
# [1] = biological target: T1, thrombin (alpha-thrombin not specified) (Homo sapiens (human plasma), UniProt P00734;P00734 328-363;364-622); experiment: EMSA; K+; band at start of lane (multi-species complex), no clotting inhibition; 1 uM Cy5-aptamer (10 uL) annealed in 10 mM sodium cacodylate pH 7.2, 100 mM KCl in D2O; 24 pmol thrombin (2.4 eq), 30 min at 25 C; 12% native PAGE, 1x TBE + 10
# [2] = biological target: T1, thrombin (alpha-thrombin not specified); experiment: EMSA; K+; only the lower (folded) band bound; 1 uM Cy5-aptamer (10 uL) annealed in 10 mM sodium cacodylate pH 7.2, 100 mM KCl in D2O; 24 pmol thrombin (2.4 eq), 30 min at 25 C; 12% native PAGE, 1x TBE + 10
Binder,binding result [1],binding result [2]
B1,binds,–
B2,–,binds
